Columns and labels:
AtPRK3^LRR = test: Gel filtration assay with AtPRK3^LRR; format: binding, Arabidopsis; conditions: 4 °C 30 min, 10 mM Bis-Tris pH 6.0, 100 mM NaCl
From the text: The genes of AtPRK3 ^LRR (residues 1–241), AtPRK4 ^LRR (residues 1–277), AtPRK5 ^LRR (residues 1–279), AtPRK6 ^LRR (residues 1–262), MIK1 ^LRR (residues 1–633), MIK2 ^LRR (residues 1–707) were amplified from Arabidopsis cDNA library by PCR and cloned into pFastBac-1 vector with a C-terminal 6 × His-tag. Their identities were confirmed by sequencing. The mature form of AtLURE1.1 (residues 20–94), AtLURE1.2 (residues 20–90), AtLURE1.3 (residues 21–91), and AtLURE1.4 (residues 20–90) were cloned into pFastBac-1 vector, with a modified N-terminal hemolin signal peptide and 6 × His-SUMO tag. Point mutation constructs were generated by QuickChange Site-Directed Mutagenesis Kit (Strategene). All the proteins were expressed using the Bac-to-Bac baculovirus expression system (Invitrogen) in High Five cells at 22 °C. One liter of High Five cells (2.0 × 10^6 cells mL^−1) cultured in the medium from Expression Systems was infected with 25 ml recombinant baculovirus and the media was collected after 72 h of infection. Secreted LRR proteins were purified using Ni-NTA (Novagen) and size-exclusion chromatography (Hiload 200, GE Healthcare) in buffer containing 10 mM Bis-Tris pH 6.0 and 100 mM NaCl. The His-SUMO tag of the AtLURE proteins was removed by Prescission Protease at 4 °C overnight in buffer containing 25 mM Tris pH 8.0 and 150 mM NaCl. […]

[1] = test system: prk6 pollen tubes transformed with PRK6 N239A; test: Gelatin-beads assay, prk6 pollen tubes transformed with N239A PRK6; format: cell-based, Arabidopsis; conditions: beads with 250 nM wild-type AtLURE1.2; 10–23 pollen tubes per assay, three assays
Procedure: Attraction activities of mutant AtLURE1.2 peptides were examined for semi-in-vivo pollen tubes growing through cut, pollinated pistils by gelatin-beads assay and wavy assay, [20]. For the gelatin-beads assay, pollen tubes were grown on solid pollen germination medium poured into a mold made with 1-mm thick silicone rubber and cover glasses. After hand-pollination, the topside cover glass was removed and the medium was covered with hydrated silicone oil (KF-96–100CS; Shin-Etsu). Attraction of pollen tubes toward the peptide was evaluated using AtLURE1 peptide containing gelatine beads under an inverted microscope (IX71, Olympus) equipped with a micro-manipulator (Narishige). For the AtLURE1-responsive wavy assay, the purified AtLURE1.2 peptide was added to solid pollen germination medium, which was melted at 70 °C and then cooled to a certain degree. The mixture was mixed by vortexing and poured into the mold. Pollen tubes of each genotype were grown through cut styles, as mentioned above. Each peptide (25 μM in 10 mM Bis-Tris (pH 6.0) and 100 mM NaCl) was diluted to 250 nM by cultivation medium in both assays. To examine reactivity of PRK6 mutants to AtLURE1.2, constructs for PRK6 mutants, D234A, N239A, and ΔN239I240, were generated by site-directed mutagenesis from a wild-type PRK6 vector, pPZP221-pPRK6::PRK6-mRuby2 (ref. [20]). […]

AtPRK6^LRR = test: In vitro pull-down with AtPRK6^LRR; format: binding, Arabidopsis thaliana; conditions: Ni-NTA, excess AtLURE1.2, on ice 30 min, washed five times, 25 mM Tris pH 8.0, 150 mM NaCl; SDS-PAGE, Coomassie blue; repeated at least three times
From the text: The genes of AtPRK3 ^LRR (residues 1–241), AtPRK4 ^LRR (residues 1–277), AtPRK5 ^LRR (residues 1–279), AtPRK6 ^LRR (residues 1–262), MIK1 ^LRR (residues 1–633), MIK2 ^LRR (residues 1–707) were amplified from Arabidopsis cDNA library by PCR and cloned into pFastBac-1 vector with a C-terminal 6 × His-tag. Their identities were confirmed by sequencing. The mature form of AtLURE1.1 (residues 20–94), AtLURE1.2 (residues 20–90), AtLURE1.3 (residues 21–91), and AtLURE1.4 (residues 20–90) were cloned into pFastBac-1 vector, with a modified N-terminal hemolin signal peptide and 6 × His-SUMO tag. Point mutation constructs were generated by QuickChange Site-Directed Mutagenesis Kit (Strategene). All the proteins were expressed using the Bac-to-Bac baculovirus expression system (Invitrogen) in High Five cells at 22 °C. One liter of High Five cells (2.0 × 10^6 cells mL^−1) cultured in the medium from Expression Systems was infected with 25 ml recombinant baculovirus and the media was collected after 72 h of infection. Secreted LRR proteins were purified using Ni-NTA (Novagen) and size-exclusion chromatography (Hiload 200, GE Healthcare) in buffer containing 10 mM Bis-Tris pH 6.0 and 100 mM NaCl. The His-SUMO tag of the AtLURE proteins was removed by Prescission Protease at 4 °C overnight in buffer containing 25 mM Tris pH 8.0 and 150 mM NaCl. All AtLURE proteins were further cleaned by size-exclusion chromatography (Hiload 200, GE Healthcare). For co-expression of AtPRK6^LRR and AtLURE1, one liter of High Five cells were co-infected with 20 and 30 ml recombinant baculovirus of AtPRK6^LRR and AtLURE1, respectively. Secreted AtPRK6^LRR-AtLURE1 complexes were processed with Prescission Protease digestion and then purified as described above. Expression and purification procedures of all the mutants were essentially the same as those of AtPRK6^LRR and AtLURE1.2.
The purified His-tagged ectodomains of AtPRK proteins and MIK1, 2 were used to pull-down the AtLURE1.2 peptide. […] All the eluted samples were analyzed by SDS-PAGE and visualized by Coomassie blue staining. […]

B1: AtLURE1.2: mature form of AtLURE1.2 (residues 20–90), defensin-like cysteine-rich peptide expressed in insect cells (protein)
chain: TLINGSSDEERTYSFSPTTSPFDPRSLNQELKIGRIGYCFDCARACMRRGKYIRTCSFERKLCRCSISDIK
modifications: left off: His6, N-terminal, cleaved | SUMO, N-terminal, cleaved
notes: mature form of AtLURE1.2 (residues 20–90), defensin-like cysteine-rich peptide expressed in insect cells
interaction in gel filtration (AtPRK3^LRR): none of the purified AtPRK3^LRR, MIK1^LRR or MIK2^LRR proteins showed detectable interaction | pollen tube attraction / reactivity [1]: comparable reactivity to the wild-type PRK6 | interaction in pull-down assay (AtPRK6^LRR): strongly interacted
